In PMC6533203:

Key:
[1] = biological target: CH01 inferred germline-reverted (iGL) antibody; assay: BLI (Octet); details: parent: est. 0.12; read off a plot
CAP256 UCA = assay: BLI (Octet); details: parent: est. 0.19; read off a plot
[2] = biological target: MT145K SOSIP.664 trimer (SIVcpzPtt (chimpanzee SIV), isolate MT145); assay: cryo-EM structure; unliganded MT145K trimer, global resolution ~4.1 Å
[3] = pseudovirus neutralization, TZM-bl cells, ID50; details: glycan lost; control: MT145K virus

| Molecule | response [1] [nm] | other results |
| --- | --- | --- |
| MT145K SOSIP.664 trimer K171E | 0.015 |  |
| MT145K SOSIP.664 trimer R166S | 0.1 |  |
| MT145K SOSIP.664 trimer N160K | 0.04 | response (CAP256 UCA): 0.015 nm |
| MT145K SOSIP.664 trimer (complex) |  | stoichiometry N [2]: 3 |
| MT145K SOSIP.664 Env trimer (also MT145K Env pseudovirus): MT145K N160A (protein) parent chain: MKVMGMKYYWWRNSCRSISIKLILIGWIASCFGEENWWVTVYYGVPVWREAKTTLFCASDAKSYSTEAHNIWATQACVPTDPTPQEVLLPNVTEEFNMWENYMVDQMQEDIISLWEQSLKPCVKLTPLCVTLTCNNPTNTSCTNSTDDRLGDMRNCSFNVTTELRDKKRQVYSLFYVEDITAIGNNSTYRLINCNTTAITQACPKTSFEPIPIHYCAPAGFALLKCNDIDYKGNETCKNVSTVHCTHGIKPVATTQLILNGSTADNQTVARIDPSENLAIIQLKDPVKITCRRPGNNTRGQIQIGPAMTFYNIENVVGDTRKAYCEINGTQWAKALNETKEVLRNILRKNISFMVPSGGDPEVTNHHFNCGGEFFYCNTSEIINITKINKTENMTIIPCRIRQIVNSWMRVGKGIFAPPIRGNITCTSNITGMLLEIHKNREDQGEDQDQNNTYVCLTGGNMKDIWRSELYKYKIVEIQPLGVAPTKSRRYAVEKQHHREKRALGLGALFLGFLGAAGSTMGAASVVLTVQARQLLTGIVQQQNNLLRAIEAQQHLLQLSVWGIKQLQARVLAVERYLRDQQLLGLWGCTGKTICPTAVRWNKTWGNISDYQVIWNNYTWQQWDREVNNYTGLIYTLLEEANTQQEKNEKELLELDSWANLWSWFDITNWLWYIKMFLIVVGGIIGLRICFAIGSLINRVRKGYSPLSLQTLIPANQGPDGLGETEKGGGENVRGRSIRLVSGFLPLVWEDLRNLLSFLYHQLRDCASLIWRLLEILGQYSLRGVQQIGTLLHQLRGTLQYWTTEIKNSAISLLDTTAIAVGEGTDRILEAITRLGRGILHIPRRIRQGLERALL |  | other: neutralisation sensitivity [3]: decreases |
